In doi:10.1101/2020.06.11.147496:

Key:
[1] = target: LuS-N71-SpyTag (Aquifex aeolicus lumazine synthase nanoparticle with a glycan at N71 and SpyTag at the N-terminus) (Aquifex aeolicus)
[2] = target: ferritin-N96-SpyTag (Helicobacter pylori ferritin nanoparticle with a glycan at N96 and SpyTag) (Helicobacter pylori)

“RSV F-SpyCatcher (respiratory syncytial virus prefusion F 'DS2' trimer with SpyCatcher at the C-terminus)” showed a percent of nanoparticle subunits conjugated [1] of 67% and a percent of nanoparticle subunits conjugated [2] of 85%.
